Measurements reported in publication PMC1665450, “Molecular modeling and characterization of Vibrio cholerae transcription regulator HlyU” (BMC Structural Biology, 2006).

Biological target: the molecule itself
Assay: not stated; unpublished results (Saha & Chakrabarti); HlyU after cleavage of the N-terminal His6-tag

B1: Vibrio cholerae transcription regulator HlyU (natural protein)
chain: MPYLKGAPMNLQEMEKNSAKAVVLLKAMANERRLQILCMLLDNELSVGELSSRLELSQSALSQHLAWLRRDGLVNTRKEAQTVFYTLSSTEVKAMIELLHRLYCQANQ
notes: also called Vc-HlyU; not shown: His6, N-terminal, cleaved
With B1 the “stoichiometry N” value was 2.
